Test results published in patent publication US20120316071A1 (published 2012).
Where a chain is given by its changes, count along the chain named. In names and notes the source's numbering stands.

B1: Fab VH5-51_IGHD5-18*01>3_IGHJ4*01 G100K/G104T G35V & V3-4_IGLJ1*01 (Fab, V domains shown)
VH: EVQLVQSGAEVKKPGESLKISCKGSGYSFTSYWIVWVRQMPGKGLEWMGIIYPGDSDTRYSPSFQGQVTISADKSISTAYLQWSSLKASDTAMYYCARRKYSYTYDYFDYWGQGTLVTVSS
VL: QTVVTQEPSFSVSPGGTVTLTCGLSSGSVSTSYYPSWYQQTPGQAPRTLIYSTNTRSSGVPDRFSGSILGNKAALTITGAQADDESDYYCVLYMGSGISYVFGTGTKVTVL
notes: Fab; also called H:KT G35V & L:parent
B2: Fab VH5-51_IGHD5-18*01>3_IGHJ4*01 G100K/G104T G24L & V3-4_IGLJ1*01 (Fab, V domains shown)
VH: B1 VH with G24L, V35G
VL: B1 VL
notes: Fab; also called H:KT G24L & L:parent
B3: Fab VH5-51_IGHD5-18*01>3_IGHJ4*01 G100K/G104T (KT) & V3-4_IGLJ1*01 R56Y (Fab, V domains shown)
VH: B1 VH with V35G
VL: B1 VL with R56Y
notes: Fab; also called H:KT & L:R56Y
B4: Fab VH5-51_IGHD5-18*01>3_IGHJ4*01 G100K/G104T (KT) & V3-4_IGLJ1*01 S52G (Fab, V domains shown)
VH: B1 VH with V35G
VL: B1 VL with S52G
notes: Fab; also called H:KT & L:S52G
B5: Fab VH1-46_IGHD6-6*01_IGHJ1*01 S102A/S103P/S104F/H111F & L6_IGKJ1*01 (Fab, V domains shown)
VH: QVQLVQSGAEVKKPGASVKVSCKASGYTFTSYYMHWVRQAPGQGLEWMGIINPSGGSTSYAQKFQGRVTMTRDTSTSTVYMELSSLRSEDTAVYYCAREEYAPFSAEYFQFWGQGTLVTVSS
VL: not shown
notes: also called H:APFF & L:wt; APFF
B6: Fab VH1-46_IGHD6-6*01_IGHJ1*01 S102A/S103P/S104F/H111F & L6_IGKJ1*01 T56A (Fab, V domains shown)
VH: B5 VH
VL: EIVLTQSPATLSLSPGERATLSCRASQSVSSYLAWYQQKPGQAPRLLIYDASNRAAGIPARFSGSGSGTDFTLTISSLEPEDFAVYYCQQRSNWPPWTFGQGTKVEIKR
notes: also called APFF & L6_IGKJ1*01 T56A
B7: Fab VH1-46_IGHD6-6*01_IGHJ1*01 S102A/S103P/S104F/H111F & L6_IGKJ1*01 N53A (Fab, V domains shown)
VH: B5 VH
VL: B6 VL with N53A, A56T
notes: also called APFF & L6_IGKJ1*01 N53A
B8: Fab VH1-46_IGHD6-6*01_IGHJ1*01 S102A/S103P/S104F/H111F & L6_IGKJ1*01 A55T (Fab, V domains shown)
VH: B5 VH
VL: B6 VL with A55T, A56T
notes: also called APFF & L6_IGKJ1*01 A55T
B9: Fab VH1-46_IGHD6-6*01_IGHJ1*01 S102A/S103P/S104F/H111F & L6_IGKJ1*01 A51T (Fab, V domains shown)
VH: B5 VH
VL: B6 VL with A51T, A56T
notes: also called APFF & L6_IGKJ1*01 A51T
B10: Fab VH1-46_IGHD6-6*01_IGHJ1*01 S102A/S103P/S104F/H111F & L6_IGKJ1*01 D50A (Fab, V domains shown)
VH: B5 VH
VL: B6 VL with D50A, A56T
notes: also called APFF & L6_IGKJ1*01 D50A
B11: Fab VH1-46_IGHD6-6*01_IGHJ1*01 S102A/S103P/S104F/H111F & L6_IGKJ1*01 R54A (Fab, V domains shown)
VH: B5 VH
VL: B6 VL with R54A, A56T
notes: also called APFF & L6_IGKJ1*01 R54A
B12: Fab VH1-46_IGHD6-6*01_IGHJ1*01 S102A/S103P/S104F/H111F & L6_IGKJ1*01 S52A (Fab, V domains shown)
VH: B5 VH
VL: B6 VL with S52A, A56T
notes: also called APFF & L6_IGKJ1*01 S52A
B13: Fab VH5-51_IGHD5-18*01>3_IGHJ4*01 G100K/G104T (H:KT) & V3-4_IGLJ1*01 S96M (Fab, V domains shown)
VH: B1 VH with V35G
VL: B1 VL with S96M
notes: Fab format: CH1 with His6 and Flag tags, and lambda CL, from the vectors; also called G100K/G104T & S96M
B14: Fab VH5-51_IGHD5-18*01>3_IGHJ4*01 G100K/G104T (H:KT) & V3-4_IGLJ1*01 S96R (Fab, V domains shown)
VH: B1 VH with V35G
VL: B1 VL with S96R
notes: Fab format: CH1 with His6 and Flag tags, and lambda CL, from the vectors; also called G100K/G104T & S96R
B15: Fab VH5-51_IGHD5-18*01>3_IGHJ4*01 G100K/G104T (H:KT) & V3-4_IGLJ1*01 S96P (Fab, V domains shown)
VH: B1 VH with V35G
VL: B1 VL with S96P
notes: Tested as a Fab made in E. coli; The heavy chain vector (plasmid A) adds CH1 with His6 and Flag tags; the lambda light chain vector (plasmid E) adds CL; also called G100K/G104T & S96P
B16: Fab VH5-51_IGHD5-18*01>3_IGHJ4*01 G100K/G104T (H:KT) & V3-4_IGLJ1*01 S96A (Fab, V domains shown)
VH: B1 VH with V35G
VL: B1 VL with S96A
notes: Fab format: CH1 with His6 and Flag tags, and lambda CL, from the vectors; also called G100K/G104T & S96A
B17: Fab VH5-51_IGHD5-18*01>3_IGHJ4*01 G100K/G104T (H:KT) & V3-4_IGLJ1*01 S96V (Fab, V domains shown)
VH: B1 VH with V35G
VL: B1 VL with S96V
notes: Fab format: CH1 with His6 and Flag tags, and lambda CL, from the vectors; also called G100K/G104T & S96V
B18: Fab VH5-51_IGHD5-18*01>3_IGHJ4*01 G100K/G104T (H:KT) & V3-4_IGLJ1*01 S96L (Fab, V domains shown)
VH: B1 VH with V35G
VL: B1 VL with S96L
notes: Fab format: CH1 with His6 and Flag tags, and lambda CL, from the vectors; also called G100K/G104T & S96L
B19: Fab VH5-51_IGHD5-18*01>3_IGHJ4*01 G100K/G104T (H:KT) & V3-4_IGLJ1*01 (Fab, V domains shown)
VH: B1 VH with V35G
VL: B1 VL
notes: Fab format: CH1 with His6 and Flag tags, and lambda CL, from the vectors; also called KT double mutant; H:KT & L:wt
B20: Fab VH5-51_IGHD5-18*01>3_IGHJ4*01 G100K/G104T (H:KT) & V3-4_IGLJ1*01 S96E (Fab, V domains shown)
VH: B1 VH with V35G
VL: B1 VL with S96E
notes: Fab format: CH1 with His6 and Flag tags, and lambda CL, from the vectors; also called G100K/G104T & S96E
B21: Fab VH1-46_IGHD6-6*01_IGHJ1*01 S102A/S103P/S104F/H111F (APFF) & L6_IGKJ1*01 S31V (Fab, V domains shown)
VH: B5 VH
VL: B6 VL with S31V, A56T
notes: Tested as Fab (CH1 with His6/Flag tags, kappa CL) made in E. coli; also called APFF / S31V

Molecular target: T1, Recombinant Human DLL4 (delta-like protein 4) (human, UniProt Q9NR61 27-524)
T1 construct: also called rHuman DLL4; Delta-like 4
Assay: ELISA on coated DLL4, Fab at 12.5 nM (2-fold serial dilution)

ELISA signal	Binder
0.244	B1
0.233	B2
0.184	B3
0.215	B4

Molecular target: T1, Recombinant Human DLL4 (delta-like …)
Assay: ELISA on coated DLL4, Fab at 3.125 nM (2-fold serial dilution)

ELISA signal	Binder
0.251	B1
0.257	B2
0.18	B3
0.216	B4

Molecular target: T1, Recombinant Human DLL4 (delta-like …)
Assay: ELISA on coated DLL4, Fab at 25 nM (2-fold serial dilution)

ELISA signal	Binder
0.232	B1
0.221	B2
0.205	B3
0.227	B4

Molecular target: T1, Recombinant Human DLL4 (delta-like …)
Assay: ELISA on coated DLL4, Fab at 100 nM (2-fold serial dilution)

ELISA signal	Binder
0.271	B1
0.298	B2
0.231	B3
0.209	B4

Molecular target: T1, Recombinant Human DLL4 (delta-like …)
Assay: ELISA on coated DLL4, Fab at 6.25 nM (2-fold serial dilution)

ELISA signal	Binder
0.245	B1
0.278	B2
0.182	B3
0.207	B4

Molecular target: T2, Recombinant Human DLL4 (delta-like protein 4) (human, UniProt Q9NR61 27-524)
T2 construct: also called rHuman DLL4; Delta-like 4
Assay: ECL (MSD) binding assay, DLL4 immobilised, Fab at 10 nM

Signal [10 nM Fab]	Binder
13500	B5
7260	B6
14200	B7
13200	B8
2850	B9
4230	B10
11600	B11
19300	B12

Molecular target: T3, Recombinant Human DLL4 (R&D Systems Cat#1506-D4/CF) (human, UniProt Q9NR61 27-524)
T3 construct: Bought recombinant human DLL4; also called delta-like protein 4; rHuman DLL4
Assay: ELISA on coated DLL4, 100 nM Fab

ELISA Signal [100 nM Fab]	Binder
0.02	B13
0.02	B14
0.03	B15
0	B16
0.01	B17
0.02	B18
0.01	B19
0.02	B20

Molecular target: T3, Recombinant Human DLL4 (R&D Systems …)
Assay: ECL (MSD) binding assay, immobilised DLL4, 10 nM Fab;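 further: fab binding read as electrochemiluminescence via a TAG-labelled detection antibody, 1 h incubations at 20 °C, antigen signal compared with each well's blank, ratio of at least 4 scored as binder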

ECL Signal [10 nM Fab]	Binder
61700	B13
54300	B14
54000	B15
1130	B16
42300	B17
40000	B18
36600	B19
57000	B20

Molecular target: T4, rHuman Notch-1/Fc Chimera, CF (R&D Systems Cat#3647-TK) (human, UniProt P46531 19-526)
T4 construct: Bought recombinant protein
Assay: ECL multispot (MSD) binding assay, antigen spotted on plate;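 further: purified Fab incubated 1 h at 20 °C on antigen spots, detected with TAG-labelled antibody, electrochemiluminescence compared with each well's blank, signal-to-blank ratio ≥4 counted as hit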

ECL signal	Binder
374	B21

Molecular target: T5, rHuman IGF-1 sR, (IGF-1 sR), CF (R&D Systems Cat#391-GR) (human, UniProt P08069 31-932)
T5 construct: Bought recombinant soluble receptor; also called insulin-like growth factor-1 soluble receptor
Assay: as above

ECL signal	Binder
335	B21

Molecular target: T6, rHuman P-Cadherin/Fc Chimera, CF (R&D Systems Cat#861-PC) (human, UniProt P22223 108-654)
T6 construct: Bought recombinant protein
Assay: as above

ECL signal	Binder
360	B21

Molecular target: T7, rHuman HGF R/c-MET/Fc Chimera, CF (R&D Systems Cat#358-MT/CF) (human, UniProt P08581 25-932)
T7 construct: Bought recombinant protein; also called HGF R/Fc; hepatocyte growth factor receptor
T7 sequence (P08581 25-932, change not shown): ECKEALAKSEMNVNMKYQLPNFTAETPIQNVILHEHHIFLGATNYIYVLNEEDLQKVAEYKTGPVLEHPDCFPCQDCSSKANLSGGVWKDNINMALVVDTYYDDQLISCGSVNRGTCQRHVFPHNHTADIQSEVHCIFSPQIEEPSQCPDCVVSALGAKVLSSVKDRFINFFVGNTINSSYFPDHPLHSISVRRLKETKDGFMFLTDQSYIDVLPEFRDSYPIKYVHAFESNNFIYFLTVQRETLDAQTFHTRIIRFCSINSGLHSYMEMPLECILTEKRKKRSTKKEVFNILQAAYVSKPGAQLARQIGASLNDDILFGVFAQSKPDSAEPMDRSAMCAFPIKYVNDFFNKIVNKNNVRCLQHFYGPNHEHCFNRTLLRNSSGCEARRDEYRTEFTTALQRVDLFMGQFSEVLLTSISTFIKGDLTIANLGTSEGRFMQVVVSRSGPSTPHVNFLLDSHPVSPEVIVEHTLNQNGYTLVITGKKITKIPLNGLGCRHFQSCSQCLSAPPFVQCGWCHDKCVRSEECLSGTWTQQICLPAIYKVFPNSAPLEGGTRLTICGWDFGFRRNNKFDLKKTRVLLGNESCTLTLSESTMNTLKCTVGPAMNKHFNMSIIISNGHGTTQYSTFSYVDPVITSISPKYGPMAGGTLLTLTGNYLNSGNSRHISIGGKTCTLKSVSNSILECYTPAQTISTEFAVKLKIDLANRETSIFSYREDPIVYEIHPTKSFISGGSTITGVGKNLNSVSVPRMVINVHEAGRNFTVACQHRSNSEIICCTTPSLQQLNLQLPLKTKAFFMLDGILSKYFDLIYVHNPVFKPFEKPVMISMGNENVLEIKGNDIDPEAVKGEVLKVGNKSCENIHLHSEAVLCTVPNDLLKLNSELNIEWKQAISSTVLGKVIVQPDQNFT
Assay: as above

ECL signal	Binder
288	B21

Molecular target: T8, rHuman Erythropoietin R/Fc Chimera, CF (R&D Systems Cat#963-ER) (human, UniProt P19235 25-250)
T8 construct: Bought recombinant protein; also called EPO R; EPO R/Fc
T8 sequence (looked up): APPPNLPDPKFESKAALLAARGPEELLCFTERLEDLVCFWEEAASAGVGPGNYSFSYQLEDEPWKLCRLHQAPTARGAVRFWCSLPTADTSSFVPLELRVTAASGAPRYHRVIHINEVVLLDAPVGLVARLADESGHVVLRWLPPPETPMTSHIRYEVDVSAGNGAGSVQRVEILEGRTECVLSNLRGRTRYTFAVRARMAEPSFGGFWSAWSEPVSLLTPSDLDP
Assay: as above

ECL signal	Binder
509	B21

Molecular target: T9, rHuman ErbB2/Fc Chimera, CF (R&D Systems Cat#1129-ER) (human, UniProt P04626 23-652)
T9 construct: Bought recombinant protein; also called human epidermal growth factor 2 receptor
Assay: as above

ECL signal	Binder
300	B21

Molecular target: T10, Recombinant Human DLL4 (R&D Systems Cat#1506-D4/CF) (human, UniProt Q9NR61 27-524)
T10 construct: Bought recombinant protein; also called delta-like protein 4; rHuman DLL4
Assay: as above

ECL signal	Binder
176000	B21

Molecular target: T11, rHuman EGF R/Fc Chimera, CF (R&D Systems Cat#344-ER) (human, UniProt P00533 25-645)
T11 construct: Bought recombinant protein; also called epidermal growth factor receptor
Assay: as above

ECL signal	Binder
363	B21

Molecular target: T12, rHuman CD44/Fc Chimera, CF (R&D Systems Cat#3660-CD) (human, UniProt P16070 21-220)
T12 construct: Bought recombinant protein
Assay: as above

ECL signal	Binder
384	B21

Molecular target: T1, Recombinant Human DLL4 (delta-like …)
Assay: ELISA on coated DLL4, Fab at 50 nM (2-fold serial dilution)

ELISA signal	Binder
0.232	B1
0.245	B2
0.211	B3
0.194	B4
